Source: US11072643B2, “Fusion protein” (ADVANCECOR GMBH, priority 2017, dated 2021)
Entries after “also recorded” stand apart in the source; their conditions may differ.

B1: GPVI-CD39: fusion protein of extracellular domain of platelet glycoprotein VI, Fc of human IgG2 and extracellular domain of human CD39, 15 amino acid linker (SEQ ID NO: 1) (protein, listed as Homo sapiens)
chain: QSGPLPKPSLQALPSSLVPLEKPVTLRCQGPPGVDLYRLEKLSSSRYQDQAVLFIPAMKRSLAGRYRCSYQNGSLWSLPSDQLELVATGVFAKPSLSAQPGPAVSSGGDVTLQCQTRYGFDQFALYKEGDPAPYKNPERWYRASFPIITVTAAHSGTYRCYSFSSRDPYLWSAPSDPLELVVTGTSVTPSRLPTEPPSSVAEFSEATAELTVSFTNKVFTTETSRSITTSPKESDSPAGPARQYYTKGNGGRVECPPCPAPPVAGPSVFLFPPKPKDTLMISRTPEVTCVVVDVSHEDPEVQFNWYVDGVEVHNAKTKPREEQFNSTFRVVSVLTVVHQDWLNGKEYKCKVSNKGLPAPIEKTISKTKGQPREPQVYTLPPSREEMTKNQVSLTCLVKGFYPSDIAVEWESNGQPENNYKTTPPMLDSDGSFFLYSKLTVDKSRWQQGNVFSCSVMHEALHNHYTQKSLSLSPGKGGGGSGGGGSGGGGSTQNKALPENVKYGIVLDAGSSHTSLYIYKWPAEKENDTGVVHQVEECRVKGPGISKFVQKVNEIGIYLTDCMERAREVIPRSQHQETPVYLGATAGMRLLRMESEELADRVLDVVERSLSNYPFDFQGARIITGQEEGAYGWITINYLLGKFSQKTRWFSIVPYETNNQETFGALDLGGASTQVTFVPQNQTIESPDNALQFRLYGKDYNVYTHSFLCYGKDQALWQKLAKDIQVASNEILRDPCFHPGYKKVVNVSDLYKTPCTKRFEMTLPFQQFEIQGIGNYQQCHQSILELFNTSYCPYSQCAFNGIFLPPLQGDFGAFSAFYFVMKFLNLTSEKVSQEKVTEMMKKFCAQPWEEIKTSYAGVKEKYLSEYCFSGTYILSLLLQGYHFTADSWEHIHFIGKIQGSDAGWTLGYMLNLTNMIPAEQPLSTPLSHST
B2: GPVI-Fc: dimeric soluble glycoprotein VI-Fc fusion protein (Revacept), Fc derived from human IgG1, in clinical investigation (protein)
chain: QSGPLPKPSLQALPSSLVPLEKPVTLRCQGPPGVDLYRLEKLSSSRYQDQAVLFIPAMKRSLAGRYRCSYQNGSLWSLPSDQLELVATGVFAKPSLSAQPGPAVSSGGDVTLQCQTRYGFDQFALYKEGDPAPYKNPERWYRASFPIITVTAAHSGTYRCYSFSSRDPYLWSAPSDPLELVVTGTSVTPSRLPTEPPSPVAEFSEATAELTVSFTNEVFTTETSRSITASPKESDSPAGPARQYYTK
modifications: left off: a dimerising Fc or GST
notes: dimeric soluble glycoprotein VI-Fc fusion protein (Revacept), Fc derived from human IgG1, in clinical investigation

Assays:
[1] = test system: Citrated blood of healthy donors; assay: In vitro closure time with Innovance PFA-200; assay type: cell-based; details: human blood ex vivo; for PFA-200 closure time, COL/ADP cartridges / PFA-200 closure time, COL/EPI cartridges: GPVI-CD39 21.7 to 217 nmol/L, versus PBS buffer control
Excerpt: (§1) Informed consent was obtained as approved by the local Ethics Committee. An overall number of 58 healthy volunteers was included into the study: blood samples from 39 subjects were taken for in vitro experiments using vascular agonists, and blood samples from 19 subjects for experiments involving human plaque material.
Citrated blood of healthy donors was mixed with antagonist in concentrations indicated in the figures, and added to Dade® PFA COL/EPI, Dade® PFA COL/ADP, or Innovance® PFA P2Y test cartridges (Siemens Healthcare, Erlangen, Germany). Blood was aspirated under high shear conditions (>5000/s) through a capillary onto a membrane with a small aperture coated with substances which activate platelets and lead to closure of this aperture. The time until closure of this aperture is monitored and expressed as in vitro closure time with a maximum closure time of 300 s.

[2] = Pharmacokinetic analysis: protein concentration in plasma by Fc-specific sandwich ELISA; assay type: in vivo, mouse; details: mice, 4 mg/kg IV
Experimental: (§2) ale and female wild type C57BL/6J mice of the age of 12-22 weeks were used in this small scale study. An overall number of 9 mice were investigated. GPVI-CD39 or solCD39 were applied in a volume of 5 ml/kg into the right tail vein. At time points indicated in the figure blood sampling was performed by incision of the left tail vein using 25 μl heparinized capillaries. Blood samples were recovered by centrifugation at 2400×g for 10 min. The upper plasma phase was transferred to fresh tubes and stored frozen at −20° C.
The concentration of GPVI-CD39 or Fc control protein in plasma samples was determined by Fc-specific sandwich ELISA. Wells of a MaxiSorp 96-well plate (Thermo Fisher Scientific, Waltham, Mass.) were coated with 0.1 μg/well goat-anti-human Fcγ antibody. Wells were washed three times with phosphate-buffered saline and tween-20 (PBST) between incubations. After blocking with 3% skimmed milk in PBST wells were incubated for 1 h with 50 μl of plasma from GPVI-CD39 treated (1:200) or Fc (1:500) treated mice diluted in PBST. Wells were incubated for 1 h with 100 μl of 80 ng/ml goat-anti-human IgG (H+L)-POD detection antibody. POD activity was visualized using 100 μl of Ultra TMB-ELISA substrate (Thermo Fisher Scientific, Waltham, Mass.) and signal intensities were read with a Tecan Infinite F200 ELISA reader.

[3] = ADPase activity of purified protein (Malachite Green phosphate detection); assay type: biochemical; details: purified protein at various concentrations, 200 μM ADP, 37° C., pH 7.5
Experimental: (§3) Various concentrations of GPVI-CD39 or solCD39 protein or plasma samples from the pharmacokinetic study diluted 1:500-1:2000 in assay buffer were incubated in 25 mM Tris-HCl, 5 mM CaCl2, pH 7.5 with 200 μM ADP in a total volume of 100 μl for 30 min or 5 min at 37° C. Enzymatically released Pi was detected using the Malachite Green Phosphate Detection Kit (R&D Systems, Minneapolis, Minn.) according to the supplier's manual. A serial dilution of Pi standard was analyzed in parallel which facilitates quantification of released Pi. Absorbance was measured at a wave length of 630 nm using a Tecan Infinite 200 ELISA reader. Enzymatic activity of purified protein was calculated taking incubation time and protein amount into account and expressed as Units per mg of protein.

C57BL/6J mice = assay: In vivo tail bleeding time in mice; set-up: species or system mouse; details: 15 min after IV 13 nmol/kg (4 mg/kg GPVI-CD39, 2 mg/kg GPVI-Fc), versus vehicle or buffer
Experimental: Test or control substances were applied into the tail vein of C57BL/6J mice. Animals were anesthetized by intraperitoneal injection of 0.5 mg/kg medetomidine, 5 mg/kg midazolame, and 0.05 mg/kg fentanyl. 10 min after protein delivery a blood sample of 20 μl was drawn for analysis of recombinant protein content and ADPase activity using a heparinized capillary. 15 min after protein application the distal 2 mm of the tail were cut off, the tail was immediately immersed into pre-warmed PBS (37° C.) buffer and time-monitored until bleeding stopped for at least 30 s. […] Animals were sacrificed and a final blood sample stored for analysis.

human platelets = assay: Platelet aggregation in human blood under static conditions (Multiplate impedance aggregometry); assay type: cell-based; details: for inhibition of ADP-induced platelet aggregation: 6.5 μM ADP, equimolar concentrations; for inhibition of ADP-induced platelet aggregation / inhibition of collagen-induced platelet aggregation: human blood; for inhibition of platelet aggregation triggered by human plaque material: same concentrations
Experimental: as §1
The effect of GPVI-CD39 and control proteins on platelet aggregation was analyzed using the Multiplate® device (25). 1:1 diluted hirudin-anticoagulated blood was pre-incubated with antagonist for 3 min in the test cell without stirring to avoid platelet pre-activation (26). Agonist was added and samples were incubated for 6 min at 37° C. with stirring. The following agonists were used: 6.5 μM ADP, 12 μg/ml collagen isolated from rabbit aorta, or 103 μg/ml collagen type I secreted by human fibroblasts (VitroCol®, Advanced BioMatrix, San Diego, Calif.). Platelet aggregation was measured in arbitrary units over the time period (arbitrary units (AU)*min) (cumulative aggregation values).

[4] = ADPase activity in plasma samples from the pharmacokinetic study; assay type: in vivo, mouse; details: mice, IV 4 mg/kg GPVI-CD39 or 2 mg/kg solCD39, up to 48 h
Experimental: as §3, §2

C57BL/6J wild type mice = assay: In vivo thrombus formation after FeCl3 injury in carotid arteries; set-up: species or system mouse
Experimental: For examination of arterial thrombus formation in vivo, 6-8 weeks old C57BL/6J wild type mice were anesthetized by injection of midazolame (5 mg/kg body weight), medetomidine (0.5 mg/kg body weight) and fentanyl (0.05 mg/kg body weight). In the ferric chloride model, an overall number of 21 mice was studied.
The common carotid artery was dissected free and the mice were injected intravenously 30 minutes before carotid injury with GPVI-CD39 (3 mg/kg body weight) or its control and with GP1bα-488 (Emfret Analytics, Eibelstadt, Germany) for platelet visualization. The carotid was exteriorized and injured by topical application of a filter paper saturated with 15% ferric chloride for 1 minute. Thrombus formation in arteries was monitored for 20 minutes or until complete occlusion (stop of blood flow for >1 min). Digital films and images were recorded with a Nikon eclipse intravital microscope and analysed offline.

platelets = assay: Plaque-induced platelet aggregation under flow; assay type: cell-based; details: 150 nM GPVI-CD39
[5] = 103 μg/ml collagen secreted by human fibroblasts (VitroCol)
[6] = human plaque material 333 μg/ml

Molecule | PFA-200 closure time, COL/ADP cartridges [1] | PFA-200 closure time, COL/EPI cartridges [1] | PFA-200 closure time, P2Y cartridges ([1]; 1.9 μM) | plasma concentration time course [2] | mean plasma concentration ([2]; 5 min after application) | plasma concentration ([2]; after 48 h) | mean ADPase activity (specific activity) [3] | tail bleeding time (C57BL/6J mice) | inhibition of ADP-induced platelet aggregation (human platelets) | inhibition of collagen-induced platelet aggregation (human platelets; 12 μg/ml collagen isolated from rabbit aorta) | inhibition of collagen-induced platelet aggregation (human platelets; [5]) | IC50 (human platelets; human plaque material 333 μg/ml, approximate, read-out: IC50 of inhibition of platelet aggregation triggered by human plaque material) | inhibition of platelet aggregation triggered by human plaque material (human platelets; [6]) | ADPase activity in plasma over time [4] | time to vessel occlusion (C57BL/6J wild type mice; 15% ferric chloride carotid injury, 3 mg/kg (10 nmol/kg) IV) | effect on ferric chloride-induced thrombus formation / occlusion time (C57BL/6J wild type mice; 15% ferric chloride, 10 nmol/kg IV (3 mg/kg GPVI-CD39, 1.5 mg/kg GPVI-Fc), versus vehicle) | PFA-200 closure time, P2Y cartridges ([1]; 47 nmol/L) | PFA-200 closure time, P2Y cartridges ([1]; 217 nmol/L) | inhibition of plaque-induced platelet aggregation (platelets)
CC(=O)Oc1ccccc1C(=O)O [ASA, acetyl salicylic acid, reference compound] | No significant differences between groups | inhibited the closure of the aperture completely; also recorded: significantly (p=0.04) prolonged | – | – | – | – | – | – | – | – | – | – | – | – | – | – | – | – | –
CCCSc1nc(N[C@@H]2C[C@H]2c2ccc(F)c(F)c2)c2nnn([C@@H]3C[C@H](OCCO)[C@@H](O)[C@H]3O)c2n1 [ticagrelor, reference compound] | No significant differences between groups | – | prolongations | – | – | – | – | – | – | – | – | – | – | – | – | – | – | – | –
B1 | no significant increase of closure times; also recorded: No significant differences between groups | no significant increase of closure times | – | decreased rapidly in the course of two hours | 95 µg/mL | 6 µg/mL | 11.2±4.0 U/mg | no differences; also recorded: no effect on systemic bleeding times | Effective inhibition; also recorded: markedly reduces ADP-induced platelet aggregation | highly significant, dose-dependent inhibition; also recorded: reduces platelet aggregation more strongly than GPVI-Fc alone | inhibited platelet aggregation significantly; also recorded: reduces platelet aggregation more strongly than GPVI-Fc alone | ~30 nM | dose-dependent inhibition | diminished rapidly during the first 60 min but was still detectable at very low levels after 2 d | 1083 s | fully effective in inhibiting arterial thrombosis; also recorded: strongly delayed ferric chloride-induced thrombus formation | statistically significant increase in closure time | statistically significant increase in closure time | 81%
B2 | No significant differences between groups | – | – | – | – | – | – | no differences | no inhibitory effect | – | minor inhibition | – | markedly and significantly less effective than GPVI-CD39 | – | – | – | – | – | –
